Measured values taken from the supplement of paper PMC10126150.
± gives the standard deviation of the averaged measurements.

System: ATP
Assay: switch fluorescence ratio, 500 uM ATP over buffer (Cy3 cluster intensity, sum of 5 cycles each) (fold (ratio)); higher = stronger signal-on switching upon ATP binding; sequences stand for … in TCGTCGGCAGCGTCAGATGTGTATAAGAGACAGTTTTTTTTTTTTTTTTTTTTTTTTT…TC
Settings: aptamer strand: ATP DNA aptamer (quencher-CACCTGGGGGAGTATTGCGGAGGAAGG + anchor), 100 nM annealed; ATP concentration: 500 uM
Procedure, shortened: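 Clusters carrying Cy3-labelled switching strands on a modified Illumina MiSeq flow-cell were annealed to 100 nM quencher-labelled ATP aptamer and imaged in selection buffer. They were imaged again after 15 min with 500 uM ATP at 22 °C, over five buffer/ATP cycles with NaOH stripping and re-annealing in between. For each cluster, the fluorescence ratio is the summed Cy3 intensity of the target cycles divided by that of the buffer cycles, averaged per switch-domain sequence. Clusters outside 100-1000 RFU were left out.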
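Note: ATP exposure 15 min at 22 °C before imaging.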

| Sequence | switch fluorescence ratio |
| --- | --- |
| ATCCAAGTAA | 1.04 ± 0.021 |
| ATCCCAGGTA | 2.009 ± 0.0073 |
| ATCCCGGGAT | 1 ± 0.022 |
| ATCCGAGGAG | 1.05 ± 0.012 |
| ATCCGATACG | 1.18 ± 0.023 |
| ATCCGCGTAG | 2.17 ± 0.017 |
| ATCCTCGGGA | 1.01 ± 0.034 |
| ATCCTTTAAC | 1 ± 0.032 |
| ATCCTTTCAG | 0.995 ± 0.016 |
| ATCGAAAAAC | 1.01 ± 0.05 |
| ATCGAAGGGA | 0.985 ± 0.041 |
| ATCGAATATT | 0.983 ± 0.031 |
| ATCGAGCATG | 1.03 ± 0.051 |
| ATCGAGTAGG | 1.008 ± 0.005 |
| ATCGATGAAT | 0.995 ± 0.015 |
| ATCGATTATC | 0.988 ± 0.021 |
| ATCGATTGAT | 1.02 ± 0.011 |
| ATCGATTTTA | 0.978 ± 0.056 |
| ATCGCATGGG | 1.03 ± 0.013 |
| ATCGCGGGCA | 1.02 ± 0.027 |
| ATCGCGGGGG | 1.009 ± 0.0021 |
| ATCGCGGTGC | 1.64 ± 0.33 |
| ATCGCTATGG | 1.125 ± 0.0017 |
| ATCGCTGGTA | 1.02 ± 0.031 |
| ATCGGAAAGC | 1.07 ± 0.028 |
| ATCGGAATTG | 1.01 ± 0.015 |

| Sequence | switch fluorescence ratio |
| --- | --- |
| ATCGGAGACA | 0.9681 ± 0.0067 |
| ATCGGAGGCA | 1.0107 ± 0.00084 |
| ATCGGCAGGC | 1.22 ± 0.075 |
| ATCGGCGGGG | 0.995 ± 0.031 |
| ATCGGGACGA | 0.955 ± 0.0099 |
| ATCGGGCGGG | 1.02 ± 0.02 |
| ATCGGGCTGC | 1 ± 0.038 |
| ATCGGGGAGG | 1.01 ± 0.0081 |
| ATCGGGGCAT | 0.98 ± 0.059 |
| ATCGGGGGAA | 1.05 ± 0.062 |
| ATCGGGTAAG | 1.01 ± 0.024 |
| ATCGGGTCCA | 0.979 ± 0.028 |
| ATCGGTGGGA | 0.992 ± 0.0031 |
| ATCGGTGTTG | 1.02 ± 0.035 |
| ATCGGTTTTG | 1.01 ± 0.021 |
| ATCGTACATA | 1.12 ± 0.064 |
| ATCGTATTAC | 1.46 ± 0.041 |
| ATCGTCCCTT | 0.986 ± 0.022 |
| ATCGTCGGGA | 0.977 ± 0.02 |
| ATCGTGCCGT | 1.01 ± 0.041 |
| ATCGTGGGTG | 0.984 ± 0.015 |
| ATCGTGTGAG | 1.02 ± 0.015 |
| ATCTAAAGTT | 1.023 ± 0.0016 |
| ATCTAACCGA | 1.06 ± 0.026 |
| ATCTAGGGTT | 0.995 ± 0.022 |
| ATCTATGGTT | 0.9669 ± 0.0036 |

| Sequence | switch fluorescence ratio |
| --- | --- |
| ATCTCAGTGT | 0.971 ± 0.04 |
| ATCTCGGTTG | 1.019 ± 0.0085 |
| ATCTCTCATA | 1.01 ± 0.038 |
| ATCTCTGAAG | 0.995 ± 0.013 |
| ATCTGGACTA | 0.984 ± 0.033 |
| ATCTGGATGG | 0.996 ± 0.03 |
| ATCTGGGGTA | 0.972 ± 0.034 |
| ATCTGTATCC | 1.05 ± 0.04 |
| ATCTGTGGTT | 0.978 ± 0.023 |
| ATCTTAGTTT | 1 ± 0.025 |
| ATCTTCAGGT | 0.995 ± 0.0013 |
| ATCTTCTAAG | 1.02 ± 0.03 |
| ATCTTCTTAG | 0.977 ± 0.051 |
| ATCTTTAAGT | 0.993 ± 0.015 |
| ATCTTTGGTG | 1.03 ± 0.022 |
| ATCTTTGTGT | 1.01 ± 0.043 |
| ATGAAAAGGG | 1 ± 0.022 |
| ATGAAAAGGT | 0.976 ± 0.013 |
| ATGAAAATCA | 1.01 ± 0.019 |
| ATGAAAATCC | 1.03 ± 0.021 |
| ATGAAAGGTT | 0.975 ± 0.021 |
| ATGAAATAGG | 0.98 ± 0.031 |
| ATGAAGAGCG | 0.994 ± 0.015 |
| ATGAAGAGGG | 0.997 ± 0.045 |
| ATGAAGTAAT | 1 ± 0.023 |
| ATGAAGTGAA | 1 ± 0.034 |

| Sequence | switch fluorescence ratio |
| --- | --- |
| ATGAATAAGG | 0.983 ± 0.028 |
| ATGAATATGC | 1.04 ± 0.043 |
| ATGAATGGGG | 1.01 ± 0.072 |
| ATGAATTGGT | 1.01 ± 0.019 |
| ATGAGACGTG | 1.04 ± 0.037 |
| ATGAGCATCT | 0.996 ± 0.01 |
| ATGAGGACCC | 0.982 ± 0.022 |
| ATGAGGAGGT | 0.979 ± 0.0036 |
| ATGAGGGGCT | 0.986 ± 0.037 |
| ATGAGGGGTT | 0.995 ± 0.032 |
| ATGAGGGTAG | 1.02 ± 0.034 |
| ATGAGGGTTC | 0.981 ± 0.044 |
| ATGAGGTGCG | 0.972 ± 0.035 |
| ATGAGGTGCT | 1.02 ± 0.032 |
| ATGAGGTTAG | 0.947 ± 0.065 |
| ATGAGTATTT | 0.979 ± 0.046 |
| ATGAGTGCCA | 0.9844 ± 0.0013 |
| ATGAGTTGGG | 0.999 ± 0.024 |
| ATGAGTTGTA | 1.01 ± 0.012 |
| ATGAGTTGTG | 1 ± 0.017 |
| ATGATAAGTA | 1.006 ± 0.0034 |
| ATGATAGTAA | 1.009 ± 0.0027 |
| ATGATAGTCG | 0.993 ± 0.013 |
| ATGATATGGG | 0.985 ± 0.026 |
| ATGATCAGGG | 1.009 ± 0.01 |
| ATGATCTCGT | 0.968 ± 0.032 |

| Sequence | switch fluorescence ratio |
| --- | --- |
| ATGATGAATG | 0.975 ± 0.054 |
| ATGATGGAAG | 0.982 ± 0.015 |
| ATGATGGACG | 1.03 ± 0.062 |
| ATGATGGCAA | 1.03 ± 0.027 |
| ATGATGGCTT | 1.006 ± 0.0027 |
| ATGATGGGCC | 1 ± 0.041 |
| ATGATGGGGC | 0.9536 ± 0.0011 |
| ATGATGTGGG | 1.011 ± 0.0087 |
| ATGATTACGA | 1.03 ± 0.026 |
| ATGATTATGA | 1.04 ± 0.029 |
| ATGATTTATT | 1 ± 0.011 |
| ATGATTTCTA | 0.986 ± 0.024 |
| ATGCAAGGCA | 1.02 ± 0.04 |
| ATGCAATCTT | 1.11 ± 0.06 |
| ATGCACTGGA | 0.9969 ± 0.0075 |
| ATGCAGACGA | 1.1 ± 0.013 |
| ATGCAGGAGT | 0.98647 ± 0.00087 |
| ATGCAGTATG | 0.967 ± 0.025 |
| ATGCATAGGC | 0.983 ± 0.011 |
| ATGCATGGAC | 1.11 ± 0.12 |
| ATGCATGGTA | 1.03 ± 0.009 |
| ATGCATTATG | 1.02 ± 0.016 |
| ATGCCAAAAG | 1.01 ± 0.042 |
| ATGCCAGGGA | 1.01 ± 0.023 |
| ATGCCAGGGT | 0.998 ± 0.031 |
| ATGCCCGGGC | 0.988 ± 0.017 |

| Sequence | switch fluorescence ratio |
| --- | --- |
| ATGCCGGTGT | 0.996 ± 0.057 |
| ATGCCTGGGC | 1.03 ± 0.057 |
| ATGCGAAACC | 1.02 ± 0.051 |
| ATGCGACGCT | 1.091 ± 0.0038 |
| ATGCGCGGTA | 1.01 ± 0.068 |
| ATGCGGGGGG | 1.01 ± 0.021 |
| ATGCGGGGTT | 1.02 ± 0.05 |
| ATGCGGGTG | 1.04 ± 0.061 |
| ATGCGTGACA | 1.02 ± 0.036 |
| ATGCTACCGT | 1.03 ± 0.049 |
| ATGCTACCTT | 1.1 ± 0.048 |
| ATGCTATTGT | 1.03 ± 0.046 |
| ATGCTCGCGG | 0.983 ± 0.038 |
| ATGCTGCGGG | 1.06 ± 0.068 |
| ATGCTGGGAC | 1.01 ± 0.024 |
| ATGCTGGGGG | 0.994 ± 0.013 |
| ATGCTGTTGC | 0.9631 ± 0.0065 |
| ATGGAAAATT | 1.04 ± 0.02 |
| ATGGAAGGGT | 0.988 ± 0.052 |
| ATGGAAGTTA | 1.011 ± 0.0057 |
| ATGGAATGGG | 0.959 ± 0.01 |
| ATGGAATTTG | 0.98 ± 0.0098 |
| ATGGACTATC | 1.03 ± 0.046 |
